Reference: the DeepSol protein solubility set

test: soluble on expression in E. coli; label from the status in PepcDB or PDB records

Sequence | soluble on expression in E. coli
MSLRVAVGMSGGVDSSVTALLLKEQGHDVIRVTLRFHTVEACEVNETHNVCCSPKDVQDASRVAKRLGIPHLVFSWEEIFKSKVIDYFVEEYKRGRTPNPCALCNREVKTGFFARYLKQVADIDKLATGHYAKIEEDKKYGLVIKRPKDRKRDQTYFLSLVRREDLELLTFPLGAYTKEEVREIAKRYGLEVAQKRDSQEVCFLMGKSPGEYLEGILGKQRGLIKHVSGKVLGEHEGVYRYTIGQRRGLGISYGKPVYVIDIDAKTNTLIVGEEEYLYNDKLLVKEINFHVPLEKWENVSAQIRYRHKPVPVERIEKTEEGFLVKFKEDVRGITPGQVVAFYDGDVLLGGGIIEESVKEGHHHHHH | soluble
MVQEAPAALPTEPGPSPVPAFLGKLWALVGDPGTDHLIRWSPSGTSFLVSDQSRFAKEVLPQYFKHSNMASFVRQLNMYGFRKVVSIEQGGLLRPERDHVEFQHPSFVRGREQLLERVRRKVPALRGDDGRWRPEDLGRLLGEVQALRGVQESTEARLRELRQQNEILWREVVTLRQSHGQQHRVIGKLIQCLFGPLQAGPSNAGGKRKLSLMLDEGSSCPTPAKFNTCPLPGALLQDPYFIQSPLPETNLGLSPHRARGPIISDIPEDSPSPEGTRLSPSSDGRREKGLALLKEEPASPGGDGEAGLALAPNECDFCVTAPPPLPVAVVQAILEGKGSFSPEGPRNAQQPEPGDPREIPDRGPLGLESGDRSPESLLPPMLLQPPQESVEPAGPLDVLGPSLQGREWTLMDLDMELSLMQPLVPERGEPELAVKGLNSPSPGKDPTLGAPLLLDVQAALGGPALGLPGALTIYSTPESRTASYLGPEASPSP | soluble
MRKKEDKYDFRALGLAIKEARKKQGLTREQVGAMIEIDPRYLTNIENKGQHPSLQVLYDLVSLLNVSVDEFFLPASSQVKSTKRRQLENKIDNFTDADLVIMESVADGIVKSKEVGEMAGENLYFQ | soluble
MSLNIVSMAREASSHKNSGKKKAIVKFIIRTLLHYSYIKKMNDNFAHDERKMLFKKQPNFLTKCITPYLRNGLSRQEIIDILVKHYDWFEYKFSTDARHQIYDDVLTLYKLEIDEQDYLINLSFDRNSRKEGELTLTLTDSKYNKYYVLAFTVVDNDIYIGCMQGGANDNGFSKLFTKSIYGLRPKSFMVETLRLLAVNLNINHIYAVKNSAHIYTAKRYGKKSKMIGLDYDRLWKEHNGESHNDYFYVLPIKSERKAMEDIKRPKRKMYRERYAWLDNYDKELKNTLDYICNEGHHHHHH | not soluble
LENPLYYLHNFRQVLNWLQLRYADVLSADEQRFILDFAQLAEPSQALLVRMVMRKGRHFRLSKLSYPEIGDSAAALEPLLALGWVDEQAPLCLEELFGLLQKAEILQCFNGLAAKARKDQWLEELTQQGLAPQAFAQWCPALPDRLLSLTLMPLCDRLRLMFFGNLYQDWSEFVLADLGIYSYEKVEISADARGLRSREDVDGFLYLHECQEAFEAGAELPEVLAHIARFQTLNPWLEKRRAKLLFQLGQQCERLAQWALARQIYQECAYPGARSRLIRVLERSAQYQAALALAEQAAAAPESAAEAQHLLRIMPRLRRKLGGPPAPRAANREVQRLDLCLARDADGLAVELHVQAHLHQPQAPVHYVENSLINSLFGLLCWPAIFAPLPGAFFHPFQRGPVDLFSEDFHQRRSELFQACLAELDDGRYRQSIRQRFVAKWGLQSPFVFWGALSEELLDQALDCLPAEHLKHWFQRLLLDIKANRAGMPDLIQFWPEQKRYRMIEVKGPGDRLQDNQLRWLDFCQEHRMPVAVCYVQWQ | not soluble
SLLDVAVSPDDRFILTADRDEKIRVSWAAAPHSIESFCLGHTEFVSRISVVPTQPGLLLSSSGDGTLRLWEYRSGRQLHCCHLASLQELVDPQAPQKFAASRIAFWCQENCVALLCDGTSVVYIFQLDARRQQLVYRQQLAFQHQVWDVAFEETQGLWVLQDCQEAPLVLYRPVGDQWQSVPESTVLKKVSGVLRGNWAMLEGSAGADASFSSLYKATFDNVTSYLKKKEERLQQQLEKKQRRRSPPPGPDGHAKKMRPGEATLSC | soluble
MRSTEVGRVVEDFIVLPPTPKSKWKLSDFELLHKLGGGNYGDVHLASVKDCNFVCALKRLSIKKLADFDIATQLRREIEIAFNTRHKYLLRTYAYFFDETDIYLIMEPCSNGMLYTELNRVKCFAPPTAARYVAQLAEALLYLHQHHILHRDIKPENILLDHNNNIKLADFGWSVHDPDNRRKTSCGTPEYFPPEIVGRQAYDTSADLWCLGIFCYELLVGKTPFVGKDTDQICKNIHSMHFKIPENIPSEAKDLIANLLLRDGSRRLALHRVVNHQFLLKYYYLPNNLQPPTGKRPRLDAEPTAGKEN | not soluble
FCGRARVHTDFTPSPYDTDSLKLKKGDIIDIISKPPMGTWMGLLNNKVGTFKFIYVDVLS | soluble
SIVLEPIYWNSSNSKFLPGQGLVLYPQIGDKLDIICPKVDSKTVGQYEYYKVYMVDKDQADRCTIKKENTPLLNCAKPDQDIKFTIKFQEFSPNLWGLEFQKNKDYYIISTSNGSLEGLDNQEGGVCQTRAMKILMKVGQDAS | soluble
MKINIRDSTMVRPATETPITNLWNSNVDLVIPRFHTPSVYFYRPTGASNFFDPQVMKEALSKALVPFYPMAGRLKRDDDGRIEIDCNGAGVLFVVADTPSVIDDFGDFAPTLNLRQLIPEVDHSAGIHSFPLLVLQVTFFKCGGASLGVGMQHHAADGFSGLHFINTWSDMARGLDLTIPPFIDRTLLRARDPPQPAFHHVEYQPAPSMKIPLDPSKSGPENTTVSIFKLTRDQLVALKAKSKEDGNTVSYSSYEMLAGHVWRSVGKARGLPNDQETKLYIATDGRSRLRPQLPPGYFGNVIFTATPLAVAGDLLSKPTWYAAGQIHDFLVRMDDNYLRSALDYLEMQPDLSALVRGAHTYKCPNLGITSWVRLPIYDADFGWGRPIFMGPGGIPYEGLSFVLPSPTNDGSLSVAIALQSEHMKLFEKFLFEI | soluble
MSLTVERVSAPTPAAFVDAANAAFRNGAVLSVQARCEVEYNGRTSGYLGDGDRLLVAKPDGTFLVHQPTGHKPVNWMPGGGTVEARTSQGDAVLLARRSNPTERVETRLHEVYGVTRFDAEDGATYEESGTEAEMHEYIEANPDALEAGLRIVEHERETKYGFIDFYAVDGDGTPVVIEVKRIQATLNHFDQLKRYVDRYAETNDDVRGMLVAPSASERVTRALRDNGLEFVALAEFGLDAKGATEAKLTDFEGHHHHHH | soluble
MSLNIISVGVNHKTAPIEIRERIALSEVQNKELVTDLVSSGLASEAMVVSTCNRTELYVVPGMPEVNCDYLKDYIISYKNARNAVRPEHFFSRFYCGTARHLFEVSCAIDSLVLGEGQILGQVKNAYRIAAEVGTAGILLTRLCHTAFSVAKKVKTRTKLMEGAVSVSYAAVELAQKIFSNLSMKKVLLIGAGETGELAAKHMYAKNARNIVITNRTQSKAEALAEELGTNRVLPYESYKEHLHEFDIIITAVSTKEYILNAAEMQQSMAKRRLKPVIILDLGLPRNVDPEVGALQNMFLKDIDALKHIIDKNLERRRAELPKVKAIIDEELVAFGQWLNTLKVRPTIVDLQSKEGHHHHHH | soluble
MNILYDERLDGPLPQVDKDGLLAELRLRLPDLELLHAAEDLRPYECDGLSAYRCTPLLVALPERIEQVQGLLALCHRLKVPVVARGAGTGLSGGALPLENGVLLVMARFRRILEIDPLGRFARVQPGVRNLAISQAAAPHGLYYAPDPSSQIACSIGGNVAENAGGVHCLKYGLTVHNLLQVDIVTLEGERLSLGSSALDSAGFDLLALFTGSEGLLGVVVEVTVRLLPRPPVAKVLLASFDDVESAGRAVADLIGAGIVPAGLEMMDNLSIRAAEDFIHAGYPVDAAAILLCELDGVEADVHEDCERVRELFEAAGATSVRQAQDEAERQRFWAGRKNAFPAVGRISPDYYCMDGSIPRRELPRVLHGIAELSREYGLRVANVFHAGDGNMHPLILFDANLAGELERAEALGGRILELCVAVGGSITGEHGVGREKINQMCAQFNADELTLFHAVKAAFDPAGLLNPGKNVPTLHRCAEFGAMHVHHGRLPFPELERF | not soluble
MAHHHHHHMSSTASPNAALLAEINDLKVKLAEKEALLQPEGVVSKKSKKKSQANMIEKEPVQGCRDFPPEDMRVRRHLFGVFHETARKFGFEEYDAPVLESEELYIRKAGEEITDQMFNFVTKGGHRVTLRPEMTPSLVRLQLAKGRSLLLPAKWYSIPQCWRYEAISRGRRREHYQWNMDIVGVKSVAAEVELVCAACAAMESLGLTAQDVGVKVNSRKLLQCALAGAGVPDSLFAPVCVIVDKMEKLPEEQIRAELEDLALDGQQADDIIRTLSLRSVDDFDKNLFDKNGALSELAEFFSQMQMYGYGDWIQFDASVVRGLAYYTGIVFEAFDRSGEFRAIYGGGRYDNLFTLYGSPQPISCVGFGFGDCVIIELLKKKKLINSLPHKVDDVVIPFNESQRGTALKVLKQLRDKGRSADIIMDSKKVAQTFSYADRIGADRAVLIAPDETEKGMARVKMLREGQRGEDDRGDLVPFEDL | soluble
MAHHHHHHMMQPHSQTRAFYCCDDEDKEGTDELLGELLFGADGRRGTDLSSTRCPPPAAPPASLDIAAPASAAATGSGAELPRLRYSRPPPHLTQTTLDLGHAEPTMATRCLLCRMLYSPENDEDAALHRRFCRGGRLRRRDRGPYDAPSSFTGACRSRRARTETAASPLASLSSPAAVAVHMLEELNGAGLGHSPSPLVANTTATVRRGGPRRRESGARGVAKATYTATDTLNTAADATVSLCTCVLRPRSSSSSSPHLSSPLAVFRISLNACGVADSKGGCTALRLLELLDFTPVVLRAAAERDVAPQTASSSVLCGNVPVVPSVRDSAASTVHVVCVVDTVLRLLLCAVVGEPRSREQDPELCVERRADGATVCSTRRNFTHGDVAGLWVLSPAELSAAQTAWEKSTAAPFASTRQALEVFFGTRAGGGAPSSAQSHAAHVTEKAHERCQQAAGVALHALAQYLVYGSSLCPSRQLSYSQAALAAAERMGAGFMEQCLAVASSCYLAGATPTPREDVGELQPLYIHGDSDDGGSDSDDANEDAKGVIGE | not soluble
MGSDKIHHHHHHMSLKELLKDRLSEEELKLVRRSFEIIGDVVIIEIPDEIMHHSRDIVEAILKRHKHVKTVLRKVGEVDGVYRVARYEPIYGEKTETVVREHGCRFLVDPTKAYYSVKLSGERERIARLVGEGERVLVMFAGVGPYPIVIAKLARPREVVGVELNPHAVEYFRQNVRLNKVEGVVKVIEGDVEEVVPQLSGQFDRVVMPAPYSAENFIHLLRGKVRRGGFVHYYTFDSQNEEKILPEKVRRKFEDEGLEVEVVKMRRCGNFAPYVNRYVLDLRVL | not soluble
SNQEPATILLIDDHPMLRTGVKQLISMAPDITVVGEASNGEQGIELAESLDPDLILLDLNMPGMNGLETLDKLREKSLSGRIVVFSVSNHEEDVVTALKRGADGYLLKDMEPEDLLKALHQAAAGEMVLSEALTPVLAASLRANRATTERDVNQLTPRERDILKLIAQGLPNKMIARRLDITESTVKVHVKHMLKKMKLKSRVEAAVWVHQERIF | soluble
SAAALRVAAVGARLSVLASGLRAAVRSLCSQATSVNERIENKRRTALLGGGQRRIDAQHKRGKLTARERISLLLDPGSFVESDMFVEHRCADFGMAADKNKFPGDSVVTGRGRINGRLVYVFSQDFTVFGGSLSGAHAQKICKIMDQAITVGAPVIGLNDSGGARIQEGVESLAGYADIFLRNVTASGVIPQISLIMGPCAGGAVYSPALTDFTFMVKDTSYLFITGPDVVKSVTNEDVTQEELGGAKTHTTMSGVAHRAFENDVDALCNLRDFFNYLPLSSQDPAPVRECHDPSDRLVPELDTIVPLESTKAYNMVDIIHSVVDEREFFEIMPNYAKNIIVGFARMNGRTVGIVGNQPKVASGCLDINSSVKGARFVRFCDAFNIPLITFVDVPGFLPGTAQEYGGIIRHGAKLLYAFAEATVPKVTVITRKAYGGAYDVMSSKHLCGDTNYAWPTAEIAVMGAKGAVEIIFKGHENVEAAQAEYIEKFANPFPAAVRGFVDDIIQPSSTRARICCDLDVLASKKVQRPWRKHANIPL | soluble
